Assay results: PMC11814294, “A pathogen effector HaRxL10 hijacks the circadian clock component CHE to perturb both plant development and immunity” (Nature Communications, 2025)

Tests used:
GST-His-ZTL [1] = target: T1, GST-His-ZTL (Arabidopsis thaliana, UniProt Q94BT6 1-609, RED-NHS 2nd Generation fluorescent label (in the MST assay only)); test: MST; 50 nM RED-NHS-labelled GST-ZTL with serially diluted His-CHE, without or with 5 uM His-HaRxL10; 50 mM Tris-HCl pH 7.4, 150 mM NaCl, 10 mM MgCl2, 0.1% Pluronic F-127, Tween-20; 25 °C; Monolith NT.115; conditions: both partners purified
T1 construct: Vector pET-42a (GST-tag); Printed molecular weight 99 kD; Called GST-His-ZTL in the pull-downs and GST-ZTL in the MST assay; also called GST-ZTL; ZEITLUPE; source: E. coli BL21 (DE3), purified (GST-beads); not shown: GST, N-terminal, kept; His, N-terminal, kept
T1 sequence (Q94BT6 whole entry): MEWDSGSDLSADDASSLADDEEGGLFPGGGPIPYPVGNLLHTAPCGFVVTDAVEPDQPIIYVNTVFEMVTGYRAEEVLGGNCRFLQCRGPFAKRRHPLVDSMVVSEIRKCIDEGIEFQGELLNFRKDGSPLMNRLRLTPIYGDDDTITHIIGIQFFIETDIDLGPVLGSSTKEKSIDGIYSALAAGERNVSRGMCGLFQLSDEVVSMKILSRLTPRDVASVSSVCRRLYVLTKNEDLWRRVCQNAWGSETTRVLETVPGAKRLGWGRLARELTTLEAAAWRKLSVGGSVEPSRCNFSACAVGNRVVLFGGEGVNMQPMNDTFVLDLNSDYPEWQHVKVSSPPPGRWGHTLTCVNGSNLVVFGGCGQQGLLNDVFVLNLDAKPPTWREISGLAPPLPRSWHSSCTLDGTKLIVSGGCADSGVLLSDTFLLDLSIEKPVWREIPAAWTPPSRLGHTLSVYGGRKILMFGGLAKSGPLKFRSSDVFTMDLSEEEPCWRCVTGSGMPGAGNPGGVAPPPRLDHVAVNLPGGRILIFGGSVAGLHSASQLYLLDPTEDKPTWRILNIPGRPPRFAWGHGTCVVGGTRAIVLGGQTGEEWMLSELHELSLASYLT

GST-His-ZTL [2] = target: T1, GST-His-ZTL; test: pull-down; MBP-His-CHE and GST-His-ZTL in equal amounts (about 5 ug), amylose resin, MBP column buffer (20 mM Tris-HCl pH 7.4, 0.2 M NaCl, 1 mM EDTA), 2-3 h at 4 °C; blots with anti-MBP and anti-GST; conditions: both partners purified

MBP-His-CHE, sequence (Q9FTA2 whole entry, change not shown): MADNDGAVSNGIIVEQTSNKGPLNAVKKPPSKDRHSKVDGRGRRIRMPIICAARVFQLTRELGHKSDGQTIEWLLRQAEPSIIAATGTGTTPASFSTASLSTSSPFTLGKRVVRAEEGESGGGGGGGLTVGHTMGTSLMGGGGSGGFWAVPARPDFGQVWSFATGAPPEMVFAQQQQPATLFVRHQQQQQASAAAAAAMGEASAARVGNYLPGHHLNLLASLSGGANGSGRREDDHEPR
His-CHE, sequence (Q9FTA2 whole entry, change not shown): as above

Binder | binding result (GST-His-ZTL [1]) | binding result (GST-His-ZTL [2])
His-CHE (natural protein, Vector pET28a (His-tag); source: E. coli BL21 (DE3), purified (Ni-NTA); not shown: His, N-terminal, kept) not shown | binds | –
MBP-His-CHE (natural protein, Vector pQLink (MBP-His-tag); Printed molecular weight 70.1 kD; source: E. coli BL21 (DE3), purified (amylose resin); not shown: MBP, N-terminal, kept; His, N-terminal, kept) not shown | – | binds
